Columns and labels:
Assay in all cases: ELISA
hPDL1 = hPDL1 (human, UniProt Q9NZQ7 19-238)
hCTLA4 = hCTLA4 (human, UniProt P16410 36-161)
hIL5 = hIL5 (human, UniProt P05113 20-134)
hTSLP = hTSLP (human, UniProt Q969D9 29-159)

hCTLA4, sequence (P16410 36-161 limits assumed): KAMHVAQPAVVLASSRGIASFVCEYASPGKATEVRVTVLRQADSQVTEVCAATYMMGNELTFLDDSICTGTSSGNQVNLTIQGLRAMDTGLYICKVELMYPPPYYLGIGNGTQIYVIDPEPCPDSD
hPDL1, sequence (Q9NZQ7 19-238 limits assumed): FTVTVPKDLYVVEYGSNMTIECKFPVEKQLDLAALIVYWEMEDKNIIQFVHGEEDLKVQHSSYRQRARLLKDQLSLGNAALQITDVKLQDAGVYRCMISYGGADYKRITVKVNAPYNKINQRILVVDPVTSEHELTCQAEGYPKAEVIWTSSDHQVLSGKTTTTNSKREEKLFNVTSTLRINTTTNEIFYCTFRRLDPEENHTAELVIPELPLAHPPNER

EC50 (hPDL1) [nM] | EC50 (hCTLA4) [nM] | EC50 (hIL5) [nM] | EC50 (hTSLP) [nM] | Binder
0.7 | 6.5 | – | – | PL-4 (bispecific antibody) chain 1: not shown chain 2: DIVLTQSPASLAVSPGQRATITCRASESVSIHGTHLMHWYQQKPGQPPKLLIYAASKLESGVPARFSGSGSGTDFTLTINPVEAEDTANYYCQQSFEDPLTFGQGTKLEIKGGGGSGIPPKIECLPIDISIDEGKVLTVASCFTGEPTPEVTWSTGGRKIHSQEQGRFHIENTDDSTTLTIKDVQKQDGGLYTLTLRNEFGSDSATVNIHIRSI chain 3: not shown chain 4: not shown
1.3 | 6 | – | – | PL-14 (bispecific antibody) chain 1: not shown chain 2: DIVLTQSPASLAVSPGQRATITCRASESVSIHGTHLMHWYQQKPGQPPKLLIYAASKLESGVPARFSGSGSGTDFTLTINPVEAEDTANYYCQQSFEDPLTFGQGTKLEIKRTVASGIPPKIECLPIDISIDEGKVLTVASAFTGEPTPEVTWSTGGRKIHSQEQGRFHIENTDDSTTLTIKDVQKQDGGLYTLTLRNEFGSDSATVNIHIRSI chain 3: not shown chain 4: not shown
1.6 | 6.7 | – | – | PL-18 (bispecific antibody) chain 1: not shown chain 2: DIVLTQSPASLAVSPGQRATITCRASESVSIHGTHLMHWYQQKPGQPPKLLIYAASKLESGVPARFSGSGSGTDFTLTINPVEAEDTANYYCQQSFEDPLTFGQGTKLEIKRTVASGIPPKIECLPIDISIDEGKCLTVASAFTGEPTPEVTWSTGGRKIHSQEQGRFHIENTDDSTTLTIKDVQKQDGGLYTLTLRNEFGSDSATVNIHIRSI chain 3: not shown chain 4: not shown
1.6 | 6.5 | – | – | PL-19 (bispecific antibody) chain 1: not shown chain 2: DIVLTQSPASLAVSPGQRATITCRASESVSIHGTHLMHWYQQKPGQPPKLLIYAASKLESGVPARFSGSGSGTDFTLTINPVEAEDTANYYCQQSFEDPLTFGQGTKLEIKRTVASGIPPKIECLPIDISIDEGKVLTVASCFTGEPTPEVTWSTGGRKIHSQEQGRFHIENTDDSTTLTIKDVQKQDGGLYTLTLRNEFGSDSATVNIHIRSI chain 3: not shown chain 4: not shown
0.6 | 6.9 | – | – | PL-10 (bispecific antibody) chain 1: not shown chain 2: DIVLTQSPASLAVSPGQRATITCRASESVSIHGTHLMHWYQQKPGQPPKLLIYAASKLESGVPARFSGSGSGTDFTLTINPVEAEDTANYYCQQSFEDPLTFGQGTKLEIKGGGGSGIPPKIECLPIDISIDEGKVLTVASCFTGEPTPEVTWSTGGRKIHSQEQGRFHIENTDDSTTLTIKDVQKQDGGLYTLTLRNEFGSDSATVNIHIRSI chain 3: not shown chain 4: not shown
0.5 | 8 | – | – | PL-12 (bispecific antibody) chain 1: not shown chain 2: DIVLTQSPASLAVSPGQRATITCRASESVSIHGTHLMHWYQQKPGQPPKLLIYAASKLESGVPARFSGSGSGTDFTLTINPVEAEDTANYYCQQSFEDPLTFGQGTKLEIKRTVASGIPPKIECLPIDISIDEGKCLTVASAFTGEPTPEVTWSTGGRKIHSQEQGRFHIENTDDSTTLTIKDVQKQDGGLYTLTLRNEFGSDSATVNIHIRSI chain 3: not shown chain 4: not shown
0.5 | 4.4 | – | – | PL-13 (bispecific antibody) chain 1: not shown chain 2: DIVLTQSPASLAVSPGQRATITCRASESVSIHGTHLMHWYQQKPGQPPKLLIYAASKLESGVPARFSGSGSGTDFTLTINPVEAEDTANYYCQQSFEDPLTFGQGTKLEIKRTVASGIPPKIECLPIDISIDEGKVLTVASCFTGEPTPEVTWSTGGRKIHSQEQGRFHIENTDDSTTLTIKDVQKQDGGLYTLTLRNEFGSDSATVNIHIRSI chain 3: not shown chain 4: not shown
0.7 | 6.7 | – | – | PL-5 (bispecific antibody) chain 1: not shown chain 2: DIVLTQSPASLAVSPGQRATITCRASESVSIHGTHLMHWYQQKPGQPPKLLIYAASKLESGVPARFSGSGSGTDFTLTINPVEAEDTANYYCQQSFEDPLTFGQGTKLEIKGGGGSGIPPKIECLPIDISIDEGKVLTVASAFTGEPTPEVTWSTGGRKIHSQEQGRFHIENTDDSTTLTIKDVQKQDGGLYTLTLRNEFGSDSATVNIHIRSI chain 3: not shown chain 4: not shown
0.5 | 7.3 | – | – | PL-7 (bispecific antibody) chain 1: not shown chain 2: DIVLTQSPASLAVSPGQRATITCRASESVSIHGTHLMHWYQQKPGQPPKLLIYAASKLESGVPARFSGSGSGTDFTLTINPVEAEDTANYYCQQSFEDPLTFGQGTKLEIKGGGGSGIPPKIECLPIDISIDEGKVLTVASCFTGEPTPEVTWSTGGRKIHSQEQGRFHIENTDDSTTLTIKDVQKQDGGLYTLTLRNEFGSDSATVNIHIRSI chain 3: not shown chain 4: not shown
0.6 | 5.6 | – | – | PL-11 (bispecific antibody) chain 1: not shown chain 2: DIVLTQSPASLAVSPGQRATITCRASESVSIHGTHLMHWYQQKPGQPPKLLIYAASKLESGVPARFSGSGSGTDFTLTINPVEAEDTANYYCQQSFEDPLTFGQGTKLEIKRTVASGIPPKIECLPIDISIDEGKVLTVASAFTGEPTPEVTWSTGGRKIHSQEQGRFHIENTDDSTTLTIKDVQKQDGGLYTLTLRNEFGSDSATVNIHIRSI chain 3: not shown chain 4: not shown
0.6 | 5.5 | – | – | PL-9 (bispecific antibody) chain 1: not shown chain 2: DIVLTQSPASLAVSPGQRATITCRASESVSIHGTHLMHWYQQKPGQPPKLLIYAASKLESGVPARFSGSGSGTDFTLTINPVEAEDTANYYCQQSFEDPLTFGQGTKLEIKGGGGSGIPPKIECLPIDISIDEGKCLTVASAFTGEPTPEVTWSTGGRKIHSQEQGRFHIENTDDSTTLTIKDVQKQDGGLYTLTLRNEFGSDSATVNIHIRSI chain 3: not shown chain 4: not shown
1.4 | 3.2 | – | – | PL-15 (bispecific antibody) chain 1: not shown chain 2: DIVLTQSPASLAVSPGQRATITCRASESVSIHGTHLMHWYQQKPGQPPKLLIYAASKLESGVPARFSGSGSGTDFTLTINPVEAEDTANYYCQQSFEDPLTFGQGTKLEIKRTVASGIPPKIECLPIDISIDEGKCLTVASAFTGEPTPEVTWSTGGRKIHSQEQGRFHIENTDDSTTLTIKDVQKQDGGLYTLTLRNEFGSDSATVNIHIRSI chain 3: not shown chain 4: not shown
1.4 | 6.2 | – | – | PL-17 (bispecific antibody) chain 1: not shown chain 2: DIVLTQSPASLAVSPGQRATITCRASESVSIHGTHLMHWYQQKPGQPPKLLIYAASKLESGVPARFSGSGSGTDFTLTINPVEAEDTANYYCQQSFEDPLTFGQGTKLEIKRTVASGIPPKIECLPIDISIDEGKVLTVASAFTGEPTPEVTWSTGGRKIHSQEQGRFHIENTDDSTTLTIKDVQKQDGGLYTLTLRNEFGSDSATVNIHIRSI chain 3: not shown chain 4: not shown
– | – | 17.4 | 3.23 | HJ-3 (bispecific antibody) chain 1: not shown chain 2: DIQMTQSPSSVSASVGDRVTITCRASQDIANYLSWYQQKPGKSPKLLIYGTSNLEVGVPSRFSGSRSGTDFTLTISSLQPEDFATYYCLQDKEFPRTFGGGTKVEIKGGGGSSGAPRFLTRPLAFVVSVGKDATLSSQIVGNPTPQVSWEKDKQPVTAGARFRLAQDGDLYRLKILDLQLSDSGQYVSRARNAIGEAFACLGLQVDAEA chain 3: EVQLVQSGAEVKKPGSSVKVSCKASGYTFSNYLIEWVRQAPGQGLEWIGVIDPGVGDTNYNENFKGRATLTADKSTSTAYIELSSLRSEDTAVYYCAREDNTGTAFDYWGQGTTVTVSSASTKGPSVFPLAPSSKSTSGGTAALGCLVKDYFPEPVTVSWNSGALTSGVHTFPAVLQSSGLYSLSSVVTVPSSSLGTQTYICNVNHKPSNTKVDKKVEPKSCDKTHTCPPCPAPEAAGGPSVFLFPPKPKDTLMISRTPEVTCVVVDVSHEDPEVKFNWYVDGVEVHNAKTKPREEQYNSTYRVVSVLTVLHQDWLNGKEYKCKVSNKALPAPIEKTISKAKGQPREPQVCTLPPSREEMTKNQVSLSCAVKGFYPSDIAVEWESNGQPENNYKTTPPVLDSDGSFFLVSKLTVDKSRWQQGNVFSCSVMHEALHNHYTQKSLSLSPGKDYKDDDDK chain 4: SIVMTQTPLSLSVTPGQPASISCKASQSVSSDVTWYLQKPGQSPQLLIYYVSEHYTGVPDRFSGSGYGTDFTLKISRVEAEDVGVYYCQQHHRFPLTFGQGTKLEIKRTVAAPSVFIFPPSDEQLKSGTASVVCLLNNFYPREAKVQWKVDNALQSGNSQESVTEQDSKDSTYSLSSTLTLSKADYEKHKVYACEVTHQGLSSPVTKSFNRGEC
– | – | 16 | 2.64 | HJ-5 (bispecific antibody) chain 1: not shown chain 2: DIQMTQSPSSVSASVGDRVTITCRASQDIANYLSWYQQKPGKSPKLLIYGTSNLEVGVPSRFSGSRSGTDFTLTISSLQPEDFATYYCLQDKEFPRTFGGGTKVEIKGGGGSSGAPRFLTRPKASVVSVGKDATLSSQIVGNPFPQVSWEKDKQPVTAGVRFRLAQDGDLYRLKILDLQLSDSGQYVSRARNAHGEAFACLGLQVDAEA chain 3: EVQLVQSGAEVKKPGSSVKVSCKASGYTFSNYLIEWVRQAPGQGLEWIGVIDPGVGDTNYNENFKGRATLTADKSTSTAYIELSSLRSEDTAVYYCAREDNTGTAFDYWGQGTTVTVSSASTKGPSVFPLAPSSKSTSGGTAALGCLVKDYFPEPVTVSWNSGALTSGVHTFPAVLQSSGLYSLSSVVTVPSSSLGTQTYICNVNHKPSNTKVDKKVEPKSCDKTHTCPPCPAPEAAGGPSVFLFPPKPKDTLMISRTPEVTCVVVDVSHEDPEVKFNWYVDGVEVHNAKTKPREEQYNSTYRVVSVLTVLHQDWLNGKEYKCKVSNKALPAPIEKTISKAKGQPREPQVCTLPPSREEMTKNQVSLSCAVKGFYPSDIAVEWESNGQPENNYKTTPPVLDSDGSFFLVSKLTVDKSRWQQGNVFSCSVMHEALHNHYTQKSLSLSPGK chain 4: SIVMTQTPLSLSVTPGQPASISCKASQSVSSDVTWYLQKPGQSPQLLIYYVSEHYTGVPDRFSGSGYGTDFTLKISRVEAEDVGVYYCQQHHRFPLTFGQGTKLEIKRTVAAPSVFIFPPSDEQLKSGTASVVCLLNNFYPREAKVQWKVDNALQSGNSQESVTEQDSKDSTYSLSSTLTLSKADYEKHKVYACEVTHQGLSSPVTKSFNRGEC

Reference: patent US20260028421A1 (JIANGSU HENGRUI PHARMACEUTICALS, published 2026)
